Laboratory results as given in the supplement of paper PMC9170038.

System: MS2 coat protein
Assay: apparent KD of MS2 coat protein; designed switch direction (-1 OFF switch, 1 ON switch): -1; higher = weaker reporter binding
Summary of the method: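 Each step of the titration lasted 0.8–1.5 h at the lowest concentration and 10–20 min at the highest. The protein, SNAP-549-labelled MS2 coat protein, went from 0.7 or 1.5 nM doubling to 3 µM over RNA switches transcribed on Illumina chips by stalled E. coli RNA polymerase. Normalised cluster fluorescence was curve-fitted, and the per-design median over clusters is given as apparent KD.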

[1] = input ligand: microRNA oligo, concentration not stated
[2] = Eterna round: R95, input ligand: FMN 200 uM
[3] = Eterna round: R95, input ligand: microRNA oligo, concentration not stated
[4] = Eterna round: R95, input ligand: none

GAAUAGAGAGGAUAUGCAAUGUAGGUAGUACGAUAUAUCUGACAUGAGGAUCACCCAUGUAGAAGGCUCAGAUC [EX2 #7] (Eterna round: R97, puzzle: Exclusion 2)
apparent KD of MS2 coat protein (input ligand: FMN 200 uM): 40.4 nM | apparent KD of MS2 coat protein (input ligand: none): 37.9 nM

GAAUGAGAGCAGGAUAUCUUAUAAAUGUAUGGAAGAGAAGGGCUCACAUGAGGAUCACCCAUGUGGUCCUAGAU [jl-ex6-4.70 jandersonlee mod] (Eterna round: R97, puzzle: Exclusion 6)
apparent KD of MS2 coat protein (input ligand: FMN 200 uM): 215 nM | apparent KD of MS2 coat protein (input ligand: none): 36.5 nM

GAAUUAAUUAAUUAAUAAUACAUGAGGAUCACCCAUGUAGAUCCUACAUACAAGCUUUGUAGCUCGUCUUAUAAUUA [Stov1/3-A2] (Eterna round: R97, puzzle: Sensor, turn-off variant 1)
apparent KD of MS2 coat protein (input ligand: FMN 200 uM): 330 nM | apparent KD of MS2 coat protein (input ligand: none): 480 nM

GACAUCGCAGGAUAUUAGAGUUUUUACAUGAGGAUCACCCAUGUUAAUUGGGUUAAUGUCUAAGAAGGGCGAUGUC [JR_EX5_Sub015] (Eterna round: R97, puzzle: Exclusion 5)
apparent KD of MS2 coat protein (input ligand: FMN 200 uM): 113 nM | apparent KD of MS2 coat protein (input ligand: none): 49.4 nM

GACCGGGCAGGAUAUACAAAACCUCGGUGUAUUUUGGACCGACAUGAGGAUCACCCAUGUAGAAGGGCCUAAGG [Eternabot (Original) Solution 4] (Eterna round: R97, puzzle: Exclusion 2)
apparent KD of MS2 coat protein (input ligand: FMN 200 uM): 34.2 nM | apparent KD of MS2 coat protein (input ligand: none): 23.6 nM

GACUAAACACGAGGAUAUGCCUGGGAAGAACAGGCAGAAGGCGUGACAUGAGGAUCACCCAUGUAGCCGGGCUAUUCUCGUACG [Tirearerar] (Eterna round: R96, puzzle: Exclusion NG 1)
apparent KD of MS2 coat protein (input ligand: FMN 200 uM): 30.8 nM | apparent KD of MS2 coat protein [1]: 24.7 nM | apparent KD of MS2 coat protein (input ligand: none): 30.3 nM

GACUAAAUUUUGUUUGGUUACAUGAGGAUCACCCAUGUUGGUCUAAGAACAUGUCUUUUGUACGCUUGUCUUAUAUA [JR_SV3TOV1_Sub068] (puzzle: Sensor v3, turn-off variant 1)
apparent KD of MS2 coat protein [2]: 76.6 nM | apparent KD of MS2 coat protein [3]: 45.8 nM | apparent KD of MS2 coat protein [4]: 96.3 nM

GACUAGGCAGGAUAUACAUGAGGAUCACCCAUGUGUCUGCGAUAGGCACGUGAUUACUGUAGAAGGGCCUUGAC [Exclusion 3 - mod of a parushev design] (puzzle: Exclusion 3)
apparent KD of MS2 coat protein [3]: 204 nM

GACUAGGCAGGAUAUACAUGAGGAUCACCCAUGUGUCUGCGUUGGGCACGUGAACACCGUAGAAGGGCCUUGAC [ChP 13.04.2015 #14] (Eterna round: R96, puzzle: Exclusion 3)
apparent KD of MS2 coat protein (input ligand: FMN 200 uM): 36.4 nM | apparent KD of MS2 coat protein [1]: 16.2 nM | apparent KD of MS2 coat protein (input ligand: none): 20.2 nM

GACUAGGCAGGAUAUACAUGAGGAUCACCCAUGUGUCUGCGUUGGGCACGUGAACACCGUAGAAGGGCCUUGAC [ChP 13.04.2015 #14] (puzzle: Exclusion 3)
apparent KD of MS2 coat protein [3]: 14.4 nM

GAGAAAUGUGUUAGGAUAUCCCGCUAAAGCAGAUAGGAGAAGGAACAUGAGGAUCACCCAUGUAGGGAGGGCCA [Eternabot (Original) Solution 17] (Eterna round: R97, puzzle: Brourd's mod of Exclusion 4)
apparent KD of MS2 coat protein (input ligand: FMN 200 uM): 192 nM | apparent KD of MS2 coat protein (input ligand: none): 67 nM

GAGAAGGUAGGAUAUACGAAUAAAUAGGGUAGUAAUAAUACACAUGAGGAUCACCCAUGUAGAAGGACCAAGAG [Mat - Exclusion 2 - Mod of my Tesla design - D39] (puzzle: Exclusion 2)
apparent KD of MS2 coat protein [2]: 38.1 nM | apparent KD of MS2 coat protein [3]: 22.8 nM | apparent KD of MS2 coat protein [4]: 25 nM

GAGAGAAUCUAGGAUAUAUCAAGAGAAGGAGAGAUAGAAGGAGAGACAUGAGGAUCACCCAUGUCUUCGUGUAG [Default title] (Eterna round: R97, puzzle: Exclusion 6)
apparent KD of MS2 coat protein (input ligand: FMN 200 uM): 16.6 nM | apparent KD of MS2 coat protein (input ligand: none): 15.8 nM

GAGAGGAGUGUAGGAUAUUUAAGGGAGGAGGAGGGAGAAGGACAUGAGGAUCACCCAUGUAGGAAGAGAGGAGGAGUACAGGAG [Default title] (Eterna round: R96, puzzle: Exclusion NG 1)
apparent KD of MS2 coat protein (input ligand: FMN 200 uM): 46.1 nM | apparent KD of MS2 coat protein [1]: 19.3 nM | apparent KD of MS2 coat protein (input ligand: none): 32.3 nM

GAGCCAUCGUGAGAUGGCUAAUAUACAUGAGGAUCACCCAUGUAGGAUAUCGAUUGCUUUGCAGUCGAGAAGGACAUGUUUAAU [JL ENG3 3.97] (Eterna round: R96, puzzle: Exclusion NG 3)
apparent KD of MS2 coat protein (input ligand: FMN 200 uM): 67.4 nM | apparent KD of MS2 coat protein [1]: 26.7 nM | apparent KD of MS2 coat protein (input ligand: none): 33.7 nM

GAGGAACAUGAGGAUCACCCAUGUGAGGAUAUGCAUAGUGAGGUAGUAGAAGUUGAAUGCAGAAGGUACACUGA [JR_Exclu1_Sub077] (puzzle: Exclusion 1)
apparent KD of MS2 coat protein [3]: 39 nM

GAGGGACAUGAGGAUCACCCAUGUGAGGAUAUGUGAGAAGGAUUGGAGAGAAAAGGAAACAGAAGGCGCGGGAG [JR_Exclu1_Sub086] (puzzle: Exclusion 1)
apparent KD of MS2 coat protein [2]: 59.5 nM | apparent KD of MS2 coat protein [3]: 50.9 nM | apparent KD of MS2 coat protein [4]: 54.7 nM

GAGGUGGGUUUUCAGAGUAACAUGAGGAUCACCCAUGUAGAAGUUGAAGGUAUCAAGCGAAUGGCUCGUCAAAUGUG [JR_SV3TOV1_Sub048] (puzzle: Sensor v3, turn-off variant 1)
apparent KD of MS2 coat protein [2]: 135 nM | apparent KD of MS2 coat protein [3]: 171 nM | apparent KD of MS2 coat protein [4]: 233 nM

GAGGUGUUAGGAUAUCGGAGAUGGAGAAGAACGGGAAGAGCCGAGAAGGAACAUGAGGAUCACCCAUGUAGGUG [JR_Exclu4_Sub030] (puzzle: Exclusion 4)
apparent KD of MS2 coat protein [2]: 326 nM | apparent KD of MS2 coat protein [3]: 270 nM | apparent KD of MS2 coat protein [4]: 696 nM

GAGUACUGAGGAUAUACAUGAGGAUCACCCAUGUGUUCCAGCUAGGAAACUAGCAAAAGUAGAAGGCAGUACUG [salish99_ex3_r3_084] (Eterna round: R96, puzzle: Exclusion 3)
apparent KD of MS2 coat protein (input ligand: FMN 200 uM): 311 nM | apparent KD of MS2 coat protein [1]: 19.3 nM | apparent KD of MS2 coat protein (input ligand: none): 23.2 nM

GAGUACUGAGGAUAUACAUGAGGAUCACCCAUGUGUUCCAGCUAGGAAACUAGCAAAAGUAGAAGGCAGUACUG [salish99_ex3_r3_084] (puzzle: Exclusion 3)
apparent KD of MS2 coat protein [3]: 18.9 nM

GAGUAGCUAGGAUAUCGAAAACAUCACAUGAGGAUCACCCAUGUGCCGGGUGCUCAGAUGCGAGAAGGAGCAAAGA [Reatququ] (puzzle: Exclusion 5)
apparent KD of MS2 coat protein [2]: 219 nM | apparent KD of MS2 coat protein [3]: 131 nM | apparent KD of MS2 coat protein [4]: 175 nM

GAGUAGUAAGGAUAUGUCUCUGGUGGCUACGGUCACUAGAGGCAGAAGGUACAUGAGGAUCACCCAUGUUUCUC [ExDelusion 9 - Jieux - Exclusion 4] (Eterna round: R97, puzzle: Exclusion 4)
apparent KD of MS2 coat protein (input ligand: FMN 200 uM): 83.1 nM | apparent KD of MS2 coat protein (input ligand: none): 39.2 nM

GAGUAGUGAGGAUAUGCAAUGAUCAUCGUACGAUGAGGCUGACAUGAGGAUCACCCAUGUAGAAGGCGCUGAUC [EX2 #18] (Eterna round: R97, puzzle: Exclusion 2)
apparent KD of MS2 coat protein (input ligand: FMN 200 uM): 57.3 nM | apparent KD of MS2 coat protein (input ligand: none): 75.2 nM

GAGUGACAUGAGGAUCACCCAUGUGAGGAUAUGCGACGGACCAAAUUAACAAUAGAAGGCAGAAGGCGCAUAAA [Exclusion 1 V10] (puzzle: Exclusion 1)
apparent KD of MS2 coat protein [2]: 26.9 nM | apparent KD of MS2 coat protein [3]: 33.1 nM | apparent KD of MS2 coat protein [4]: 31.1 nM

GAGUGAGCGUGAGGAAUAUACAUGAGGAUCACCCAUGUUUGCUAAUAUAUUGCUCGUCUUAUAACAACAAUUAACUG [Mod-hoo-honey#ab] (Eterna round: R97, puzzle: Sensor, turn-off variant 1)
apparent KD of MS2 coat protein (input ligand: FMN 200 uM): 12.6 nM | apparent KD of MS2 coat protein (input ligand: none): 13.7 nM

GAGUGCUGAGGAUAUACAUGAGGAUCACCCAUGUGCUUCAGCUAGGAGACUAGCUUUGGUAGAAGGCAGUACUC [Mod of lroppy 23 - Jieux - Exclusion 3] (Eterna round: R97, puzzle: Exclusion 3)
apparent KD of MS2 coat protein (input ligand: FMN 200 uM): 49.4 nM | apparent KD of MS2 coat protein (input ligand: none): 14.2 nM

GAGUUAACAUGAGGAAUAUACAUGAGGAUCACCCAUGUUAACAAAUUUAUUGCUCGUCUUAUAACAACAAUUAACUC [Alarm 5 - Jieux - Sensor, turn-off variant 1] (Eterna round: R97, puzzle: Sensor, turn-off variant 1)
apparent KD of MS2 coat protein (input ligand: FMN 200 uM): 105 nM | apparent KD of MS2 coat protein (input ligand: none): 111 nM

GAGUUAACGUGAGGAAUAUACAUGAGGAUCACCCAUGUUAACAAAUUUAUUGCUCGUCUUAUAACAACAAUUAACUC [Alarm 6 - Jieux - Sensor, turn-off variant 1] (Eterna round: R97, puzzle: Sensor, turn-off variant 1)
apparent KD of MS2 coat protein (input ligand: FMN 200 uM): 23 nM | apparent KD of MS2 coat protein (input ligand: none): 27.7 nM

GAGUUACAUGAGGAUCACCCAUGUGAGGAUAUGAGUCAGUCACGGUGACGUGGCUGACUCAGAAGGCACAAUGG [Mat - Exclusion 1 - JL Mod - D46] (Eterna round: R97, puzzle: Exclusion 1)
apparent KD of MS2 coat protein (input ligand: FMN 200 uM): 256 nM | apparent KD of MS2 coat protein (input ligand: none): 380 nM

GAUAAGGUAGGAUAUACGAAUAAAAAGGGUAGAAGAAGAACACAUGAGGAUCACCCAUGUAGAAGGACCAAGAG [Mat - Exclusion 2 - Mod of my Tesla design - D23] (puzzle: Exclusion 2)
apparent KD of MS2 coat protein [2]: 43 nM | apparent KD of MS2 coat protein [3]: 20.6 nM | apparent KD of MS2 coat protein [4]: 19.6 nM

GAUAGGGCAGGAUAUCGAGAUCCGCACAUGAGGAUCACCCAUGUUCGGUCGAAAGACCGACGAGAAGGGCCGUAUC [Omei Ex5 E6] (Eterna round: R97, puzzle: Exclusion 5)
apparent KD of MS2 coat protein (input ligand: FMN 200 uM): 698 nM | apparent KD of MS2 coat protein (input ligand: none): 536 nM

GAUCAACAUGAGGAUCACCCAUGUGAGGAUAUGAUACUAUGUACUUCGGUACAUAGUAUCAGAAGGCACAUAAA [Ex1-3: 38] (puzzle: Exclusion 1)
apparent KD of MS2 coat protein [3]: 72.4 nM

GAUCAUGCAGGAUAUACAUGAACCAUGAAAACAUGGUUUUCACAUGAGGAUCACCCAUGUAGAAGGGCAUGAUC [Omei Ex2 A7] (Eterna round: R97, puzzle: Exclusion 2)
apparent KD of MS2 coat protein (input ligand: FMN 200 uM): 183 nM | apparent KD of MS2 coat protein (input ligand: none): 56.7 nM
